Data published in paper PMC5374107.

Biological target: ICAM-1D1D5-Fc::PFD1235w head structure complex (human | Plasmodium falciparum)
Test: SPR; Biacore T-200; dual binding: ICAM-1D1D5 Fc immobilized (1,800, 2,100 or 1,500 RU) on Protein A CM5 chip, head structure injected at 250 nM for 240 s, then EPCR injected, two-fold dilutions 250 nM to 16 nM, 30 µL/min, 240 s association, 720 s dissociation; 10 mM HEPES pH 8.0, 300 mM NaCl, 0.05% Tween-20; one-site kinetic model

B1: Recombinant His-tagged EPCR (receptor)
chain: SQDASDGLQRLHMLQISYFRDPYHVWYQGNASLGGHLTHVLEGPDTNTTIIQLQPLQEPESWARTQSGLQSYLLQFHGLVRLVHQERTLAFPLTIRCFLGCELPPEGSRAHVFFEVAVNGSSFVSFRPERALWQADTQVTSGVVTFTLQQLNAYNRTRYELREFLEDTCVQYVQKHISAENTKGSQTSRSYTSLVLGVLVGSFIIAGVAVGIFLCTGGRRC
modifications: biotin (biotinylated by BirA)
- Kd: 271 nM
- koff: 0.00103 s⁻¹
- kon: 3600 M⁻¹ s⁻¹
